Data on one substance can be found in article PMC4309839, “Functional classification and biochemical characterization of a novel rho class glutathione S-transferase in Synechocystis PCC 6803” (FEBS Open Bio, 2014).

The data set relates to O=C(O)C(Cl)Cl. As to the kind of experiment: purified protein. The data set is classed as biochemical, Synechocystis sp. PCC 6803. To be noted: 1 mM GSH, 0.05-1 mM DCA, 100 mM phosphate pH 7.4, 37 °C.

With “sll1545 (Synechocystis sp. PCC 6803 substr. Kazusa)”, the Km was 0.14 ± 0.02 mM, the Vmax was determined as 11.8 µmol/min, the kcat amounted to 82.17 ± 0.23 s⁻¹ and the kcat/Km was determined as 574600 ± 990 M⁻¹ s⁻¹.

In general, Km refers to the concentration of substrate that gives half-maximal velocity. A word on the Vmax: it is the top rate of the reaction or transport when substrate is in excess. For orientation: kcat means the maximal rate divided by the concentration of active sites. Usually kcat/Km stands for the second-order rate constant that governs catalysis at low substrate concentration.
